Test: label from the status in PepcDB records

| Sequence | protein production |
| --- | --- |
| MKCIPYSVLLKDLEMRNLRELEDLIIEAVYTDIIQGKLDQRNQLLEVDFCIGRDIRKKDINNIVKTLHEWCDGCEAVLLGIEQQVLRANQYKENHNRTQQQVEAEVTNIKKTLKATASSSAQEMEQQLAERECPPHAEQRQPTKKMSKVKGLVSSRH | not failed |
| MMNNVKYLSFALILAFSACKSGSASSQEPSEKQDTVKIFNLPQIPVVLNTVEQRTDYMVKHYWDRFDFSDTTYINQAEVPEQAWVDYCDLLEHVPLPVAQTAMKETFNRAEKNRKMLHFFEELADKYLYDPNSPMRNEEFYIPVLEALIASPALDETAKIRPQARLELAQKNRLGTKALNFTYTLDSGVKGTLYQFPAEYTLLFINNPGCHACAEMIEGLKASPVINGFTAAKKLKVLSIYPDEELDEWKKHRNDFAKEWTNGYDKELVIKNKNLYDLRAIPTLYLLDKNKTVLLKDATLQKVEQYLAERG | failed |
| MSIEMKTQLGTVDVSKDVVATIAGGAAVDCYGIVGMASQKQIKDGLSELLGRENFRRGVVIREEEDEIHIDMYIIVSYGTKISEVAYNVQTKVKYQLETMLGIDVDSVNIFVQGVRVTNPLEHHHHHH | failed |
| MGEEEAVAEENGGLKVESGEQKSSWPTMRFDVSPYRTHHFSKQFRTARNPNNFLKGLKWSPDGSCFLASSEDNTLSLFHLPQDGGDSNGYGVPVPEEDSYGASLLVNEGESVYDFCWYPYMSVSDPLTCVFATSTRDHPIHLWDSTSGELRCTYRAYDAMDEITAAFSVGFNPDGTKIFAGYNSSIRVFDLHRPGRDFRQYSTLQKNKEGQAGILSTLAFSPTNSGMLAVGSYGQTTGIYREDNMELLYVLHGQEGGVTHVQFSKDGNYLYTGGRKDPYILCWDIRKSVEIVYKLYRATENTNQRVFFDIEPCGRHLGTGGQDGLVHMYDLQTGNWVSGYQAASDTVNAFSFHPYLPMAATSSGHRRFAIPDDDDGEDKNELQLKADENCVSLWSFYVEDNTYDENNGVASESHLQNVTEEIVLT | failed |
| MMGGKGGFYRHLAVEGNFGGTTQSLAVCSTIGANSVKMPTSFLYTPHRQAEFMALLQISEPGMSASPHRHRLAAGIDLGTTNSLVATVRSGSAACLPDAEGRVTLPSVVRYLENGGIEVGKTALSAQKTDPLNTVSSAKRLIGRTLADLHQNTHYLPYRFGDNQRVIELHTRQGVKTPVEVSAEILKTLKSRAEETLGGDLVGVVITVPAYFDDAQRQATKDAARLAGLNVLRLLNEPTAAAIAYGLDNASEGTFVVYDLGGGTFDVSVLQLTKGLFEVKATGGNSALGGDDFDHRLFCRLLEQNGLSQLNEQDSQLLLSLVRAAKEQLTTQTEARIQATLSDGMAIDTSISRAEFHNLTQHLVMKTLEPVTQALKDAGVGKNEVKGVIMVGGSTRMLHVQQAVATFFGQTPLNNLNPDEVVALGAAIQANVLAGNKTDGEWLLLDVTPLSLGLETYGGLAEKIIPRNSTIPTARAQDFTTFKDGQTAMTIHVVQGERELVSDCRSLAKFTLRGIPPMAAGAARIRVTFQIDADGLLSVSAQEQSTGVQAQIEVKPSYGLDDGAITRMLKDSMDNAAEDMAARARAEAVVEAESLTDAVNAALELDSDLLDAKELQQIRQGIADLQGRLKDGKAEDIRSAVAKLSRSTDNFAAKRMNRNIQRALTGQSVDNI | failed |
| MVDSHVHTPLCGHAEGHPEAYLEEARAKGLKGVVFTDHSPMPPWYDPESRMRLEALPFYLLALERVRERAQDLYVGIGLEADFHPGTEGFVAQLLRRYPFDYVIGSVHYLGAWPLDHPDHQEEYAWRDLKEVFRAYFQEVEKAARSGLFHAIGHLDLPKKFGHRLPEEALLELAEPALRAVAEAGLFLDVNTAGLRRPAKEVYPAPALLRRARELGIGLVLGSDAHRPEEVGFAFPEVQALLAGLGFREAYYFVEGSPVAYPLSRASLEHHHHHH | not failed |
| QLSMLNPQKPMRRSEQHIARQVFSGLTRLDEEEQLQPDLAHAWQALSDTHWRFYLRPGVRFHNGNLLTTELIVQNLWQLRLLNLFAHIDRVDSPYPWAVDVHLQKPDTRLPLLLAEACAKILPAESDRNPDFDLMPVGTGPYKVVLND | failed |
| MEQRPYSLCLLRLSALGDITHVLPLVRTLQRERPQARLHWIIDTMGSKLMDGLDGIHFHVYDKHTGLRGMRALRAELTPLGHFDALLHMQVSLRANLLSAFVPAQRRIGYDHNRSKDLHGLFINERIPDNPGIHVLDAIGSFCEPLGLVQREVRWDLPVSEEARAWAWAQWNNDGRPVLMISPCSSHTHRNWQAKRYAAVAEHASAQGWRIVLCGGRSTLERQTADTILAQTQVPLLDMVGKDTLKQLPALLERADLVMTPDSGPMHIANALGKKVLGLHAASNPHRSGPYSDLRYCVNRYDAAAHKYLGKPSNMLKWGTKIESNGVMDLVTVEDAIAAFERYRADYAHH | failed |
| MTKLPATSDIYISFFMFTTNLQPDNLDYRRIVVAHIKKLQRFGYSGFEFPIAPGLPENYAQDLENYTNLRHYLDSEGLENVKISTNVGATRTFDPSSNYPEQRQEALEYLKSRVDITAALGGEIMMGPIVIPYGVFPTTDFNEPIWSDELQEHLKVRYANAQPILDKLGEYAEIKKVKLAIEPITHWETPGPNKLSQLIEFLKGVKSKQVGVVIDSAHEILDGEGPEIFKTQVEYLAQQGRLHYVQVSPPDRGALHTSWLPWKSFLTPIVKVYDGPIAVEIFNAIPAFTNSLRLTRRKFWIPDEDPPNQYPNAYDIADEAIKVTRKELKKIGSK | not failed |
| MTGTPQRSHPQPERTFVTIDFAALPDDFLWGTATSAYQIEGAVAEDGRSPSIWDTFSHTPGKIDNGDHGDVACDHYHRTHEDIELMRRLGTNAYRLSVAWPRVVPGGDGPVNAKGLAFYDRLVDDLLAAGITPSVTLYHWDLPQVLQDRGGWPERDTAEHFAAYAAVVAERLGDRVAHWATLNEPLCSAWIGHLEGKMAPGQTDLTAAVRASYHLLLGHGLAMQAIRAAAPDAQVGIVNNLSTIHAATDREEDLAAARRMDGHTNRWWLDPVHGRGFPQDMREVYGVELPERPGDMRLIGAELDWLGLNYYFPQTVAADPTGPAPQVRTVRRAGVPRTGMDWEIDAGGIEELLLRLTEEYGPRKLYVTENGSSFPDLVRPDGSVDDPERQEYLTAHLAACASAARKGAPLAGYFAWSLLDNFEWAYGYDKRFGLVHVDYATQVRTIKGSGHHYADIIGRARGRERKAA | failed |
| MAGNFWQSSHYLQWILDKQDLLKERQKDLKFLSEEEYWKLQIFFTNVIQALGEHLKLRQQVIATATVYFKRFYARYSLKSIDPVLMAPTCVFLASKVEEFGVVSNTRLIAAATSVLKTRFSYAFPKEFPYRMNHILECEFYLLELMDCCLIVYHPYRPLLQYVQDMGQEDMLLPLAWRIVNDTYRTDLCLLYPPFMIALACLHVACVVQQKDARQWFAELSVDMEKILEIIRVILKLYEQWKNFDERKEMATILSKMPKPKPPPNSEGEQGPNGSQNSSYSQS | not failed |
| MFAYTLTTLTLCCTSILITSYISKRKGTLMEYMVFIMSFSMSIGLSIGFYLGILFKGELLYSTLLAILISGFIGFLIGLRFHLYTALEGMFSGLMASMMGAMITEMLNAQQAHSILFISLLLTITITMSCVIQLLSENFSTFIQQRFLLLLSISVVIIVAVFTTFPDHTPAPSPGHNQHIH | failed |
| MPHFLAKLDFKPLEYPLIEGDFCFHREFLSLKNPTKSCVYASFKDRIFLLQKIRRANDFLIKSEKATPLKREVLKQALRIYSQSFEVISHNLQENSKHASGKKTLDLGTFEDFIQKNQAPILIEIGFGSGRHLIELAKNNPTKTCLGIEIHTPSIAQALKQIELLDLKNLHILQGDGRLVLESMPNHRCEKIFVHFPVPWNEKKHRRVLSEKFLNEALRVLKPRGFLELRTDDSLYFEDSLKLALKNFQCEIEIKKNAQIPVVSKYEARWNKLKKDIYDLRIYSLEWNETPFDNHAFDFSFDTITISKKSVGTILKTKKIIQEGYFVHVCNIYENKGDFLVELSMGDFDWPVRLFVLLTENQIFYLNKSPLKTLNNHKAHLLLQNILSQKGIG | failed |
| MRQKETTATTRFSLLPGSITRFFLLLIIVLLVTMGVMVQSAVNAWLKDKSYQIVDITHAIQKRVDTWRYVTWQIYDNIAATTSPSSGEGLQETRLKQDVYYLEKPRRKTEALIFGSHDNSTLEMTQRMSTYLDTLWGAENVPWSMYYLNGQDNSLVLISTLPLKDLTSGFKESTVSDIVDSRRAEMLQQANALDERESFSNMRRLAWQNGHYFTLRTTFNQPGHLATVVAFDLPINDLIPPGMPLDSFRLEPDATATGNNENEKEGTDSVSIHFNSTKIEISSALNSTDMRLVWQVPYGTLLLDTLQNILLPLLLNIGLLALALFGYTTFRHFSSRSTESVPSTAVNNELRILRAINEEIVSLLPLGLLVHDQESNRTVISNKIADHLLPHLNLQNITTMAEQHQGIIQATINNELYEIRMFRSQVAPRTQIFIIRDQDREVLVNKKLKQAQRLYEKNQQGRMTFMKNIGDALKEPAQSLAESAAKLNAPEGKQLANQADVLVRLVDEIQLANMLADDSWKSETELFSVQDLIDEVVPSVLPAIKRKGLQLLINNHLKAHDMRRGDRDALRRILLLLMQYAVTSTQLGKITLEVDQDESSEDRLTFRILDTGEGVSIHEMDNLHFPFINQTQNDRYGKADPLAFWLSDQLARKLGGHLNIKTRDGLGTRYSVHIKMLAADPEVEEEEERLLDDVCVMVDVTSAEIRNIVTRQLENWGATCITPDERLISQDYDIFLTDNPSNLTASGLLLSDDESGVREIGPGQLCVNFNMSNAMQEAVLQLIEVQLAQEEVTESPLGGDENAQLHASGYYALFVDTVPDDVKRLYTEAATSDFAALAQTAHRLKGVFAMLNLVPGKQLCETLEHLIREKDVPGIEKYISDIDSYVKSLL | failed |
| MNPTLSAAVTAPSAGTQDAEAEIRDLAQSLTLEQQVQLLTGADVWSTHAIPEIGLSRVVMSDGPAGVRGEDFDERHDSVSLPSSSALSATWSVETARNYGQVLGQEARRKGVHAVLGPTINLHRSPLGGRHFECMSEDPRLTATMAAGYVAGVQSMGVGATPKHYLANEAETERFTADSVVDERPLRELYLAAFEDAITEARAWLVMSSYNSINGTTASENKLLETPLSTEWGFDGVVVSDWTGVRSIDAANAHQDLEMPGPVGHWGPKLLAAVNEGRVSREAILEKVTRILRLAARVGSLEGFEPAVTHLPTELNGAAVAREVAVRGAVLVRNKGLLPLDAKALGSVAVIGHNADEARTQGGGSATVMPKYTVSPLEGLRKALPEGVKVTYARGAKVAEGIQAFPRTSLHNPVSNVPGIRVTFLAEDGTEISGEDRLASHLIWFGIGIPDGAASIRMEADWTAETAGVHHLGVGTVGRIRFVLDGTEVFNSELEDDTEVLGAALFDPPKTVHAIDTTAGQSIRIEAEYQLPKEQVIPFTAILLGEETVVAEPQAEIDAAVEAARASDVAVVVVGTNAAIESEGFDRKDLDLPGYQNQLVKAVAAANPRTVVVVNSGSPVLMPWLDTVDAVLLGWFGGQEFGSAVADILLGVEEPGGRLPTTWPSALDDVPVLNTTPTDGKVVYSEGIHIGYRAWLKQQAEGGAAPALPFGFGLGYTTFEFGKAHAPQAVTAGKDLVVHVPVKNTGTRTGREVVQVYVERTESAVERPVRWLAGYAGAHLAPAGTESVEIRIPAKAFAHYDGGWQFEQGTFRLLVGRHAADDFQSLDIELR | failed |
| MFELLFLLLPIAALYGWYIGRLSVKKEQESINNKFSRDYVTGLNFLLSNQQEKAVDLFLSMLQKQESENQIATESQFEAELTLGNLFRSRGEVDRALRIHQALDSSLNYSIEQKLLAKQQLAKDFMAAGFYDRAENYYILLLDEPEFAVNSLTQLMVLYQKTNEWKKAINVAEKLLKIDPKTDRIPLSHYYCEYAQAIKSEDEDLYLRLLGKALEYSPLCTRASMLLGDYYLAQGQFSQALTHFEHILVQDPDYISEVLHNIKTCHAALHDFINYELFLIRSNQVKHNSSVDIALAELIEQKDGLIAAHSKLYQQLSKYPSMLIFHRFIYYQINEAEEGSAKESLVLLHNMVGARIKKSFQYRCLNCGYQSYRLSWYCPSCRQWEQIKPINGIDSY | failed |

From a protein production outcome set (Wang et al. 2014)
